From the nanobody polyreactivity screen of Harvey et al. (2022)

Test: yeast display, Sf9 membrane polyspecificity reagent, FACS + sequencing; frameworks hold sequencing errors
In short: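 Using colony PCR, genes from sorted yeast display clones were amplified, then sequenced on MiSeq at 2 × 250 and filtered by CDR length. The clones had been stained with 10% biotinylated, detergent-solubilized Sf9 membrane reagent for 1 hour at 4 °C and sorted by FACS into low and high (top ~1%) gates on anti-HA and streptavidin fluorescence. Polyreactivity labels come from the gate of origin.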
With “QVQLVESGGGLVQAGGSLRLSCAASGRTFALYAMGWYRQAPGTERELVASISWRGGSTYYADSVKGRFTISRDNAKNTVYLQMNSLKPEDTAVYYCAADTWSYGPLNYRLEYWGQGTQVTVSS” the “polyreactivity (PSR sort gate)” value was “low polyreactivity”. With “QVQLEESGGGLVQAGGSLRLSCAASGRTFGLYAMGWYRQAPGKERELVAAITRSDGGTNYADSVKGRFTISRDNAKNTVYVQMNSLKPEDTSVYYCAVDLGYVSDVSWYAYEYWGQGTQVTVSS” the “polyreactivity (PSR sort gate)” value was “low polyreactivity”. With “QVQLVESGGGLVQAGGSLRLSCAASGFIFRYYAMGWYRQAPGKERELVAAISKRGGGTYYADSVKGRFTISRDNAKNTVYLQMNSLKPEDTAVYYCNKDGGYGTGSSREYDSWGQGTQVTVSS” the “polyreactivity (PSR sort gate)” value was “high polyreactivity”. For “QVQLVESGGGLVQAGGSLRLSCAASGSIFQGYAMGWYRQAPGKERELVARITSDDDSTYYADSVKGRFTISRDNAKITVYLQMNSLKPEDTAVYYCNADYYWTSLAMDSWGQGTKVTVSS”, the “polyreactivity (PSR sort gate)” value was “low polyreactivity”. In the case of “QDQLVESGVGLDQAGGSLRLSCAASGRIFRGSAMGWFSQAPGKEREFVAAITKNGGSTYYADSVNARFTISRDNANNTVYVQMNSLKPEDTAVYDCAVRAWDPDTGNSDYWGQGTQGTVSS”, the “polyreactivity (PSR sort gate)” value is reported as “low polyreactivity”. With “QVQLVESGGGLVQAGGSRRLSCAASGSTFYGYAMGWYRQAPGKEREFVAAITTSGGSTYYADSVKGRFTISRDNAKNTVYLQMNSLKPEDTAVYYCAADGFYYDDGYWGQGTQVTVSS” the “polyreactivity (PSR sort gate)” value was “low polyreactivity”. With “QVQLVESGVGIVQAGCSLRLSCAASGSIFRYYAMGLYRQAPGKERELVAGITASTGRTYYADSVKGRFTISRDNAKNTVYLQMNSLKPEDTAVYYCAARSRYYEYDYWGQGTQVTVSS” the “polyreactivity (PSR sort gate)” value was “low polyreactivity”. For “QVQLVESGGGLVQAGGSLRLSSAASGITFRNYAMGWSRQAPGKERELVAAITRGGRTNYADSVKGRFTISRDNAKNTVYLQMNSLKPEDTAVYYCATGRDSNFGNSYYYWGQGTQVTVSS”, the “polyreactivity (PSR sort gate)” value was “high polyreactivity”. With “QVQLEESGGGLVQAGGSLRLSCAASGITFTLNAMGWYRQAPGKERELVATINRGTGTNYADSVKGRFTISRDNAKYTVYLQMNSLKPEVTAVYYCAADHRGEYDYWGQGTQVTVSS” the “polyreactivity (PSR sort gate)” value was “low polyreactivity”. For “QVQLVESGGGLVQAGGSLSLSCAASGNTFPYYAMGWYRPAPGKERELVAAIRAGGGSTYYADSVKGRFTISRDNAKNTVYLQMNSLKPEDTAVYYCNADSDYNQYYLAVIHSILDYWGHGTQVTVSS”, the “polyreactivity (PSR sort gate)” value was “low polyreactivity”. For “QVQLVESGGGLVQAGGSLRLSCAASGSTFLKNAMGWYRQAPGKERELVAAISYSTTRTYYAVSVKGRFTISRDNAKNTVYLQINSLKPEDTAVYYCAARYDRSSKRNYWGQGTQVTVSS”, the “polyreactivity (PSR sort gate)” value was “low polyreactivity”. For “QVQLVESGGGLVQAGGSLRLSCAASGRNFSSYALGWYRQAPGKERELVAAIRYDAGSTYYADSVKGRFTISRDNAKNTVYLQMNSLKPEDTAVYYCAAGIYSSRHSPYGYWGQGTQVTVSS”, the “polyreactivity (PSR sort gate)” value was “high polyreactivity”. For “QVQLVESGGGLVQAGGSLRFSCAASGSTFSYYAMGWYRQAPRKEREFVAAMSWNGGSTYYADSVKGRYTISRDNAKNTVYLHMNSLKPEDTEVYYCAADFKYGYSHGFRQRLYDYWGQGTQVTVSS”, the “polyreactivity (PSR sort gate)” value was “low polyreactivity”. In the case of “QVQLVESGGGLVQAGGSLRLSCAASGLIVGGYTMGWYRQAPGKERDLVAAIDSADSTYYADSVKGRFTISRDNAKNTVYLQMNSLKPEDTAVYYCATYWFYSGPAFSLRETGGVNYWGQGTQVTVSS”, the “polyreactivity (PSR sort gate)” value is reported as “low polyreactivity”. In the case of “QDQHVDSGGGLVQAGGSLRLRCAASGFTIADYAMGWYRQAPGKERELVAAINRSGGRTYYADSVKGRFTISRDYAKNTVYLQMNMLKPEDTAVYYCAAYGITYHNSDSWGQGTQVTVSS”, the “polyreactivity (PSR sort gate)” value is reported as “high polyreactivity”. For “QVQLLESGGGLVQAGGTLRLSCAASGSTFAKYGMGWYRQAPGKERELVAAISRSGGRTYYADSVKGRFTISRDNAKNTVYLQMNSLKPEDTAVYYCATDGIRLTRHRDYDYWGQGTQVTVSS”, the “polyreactivity (PSR sort gate)” value was “low polyreactivity”. In the case of “QVQLVESGGGLVQAGGSLRLSCAASGSTFELNAMGWYRQAPGKERELVAVITISGGNTYYADSVKGRFTISRDNAKNTVDLPMNSLKPDDTAVYYCAARPITTSITRYGFWGQGTQVTVSS”, the “polyreactivity (PSR sort gate)” value is reported as “high polyreactivity”. In the case of “QVQLVESGGGLVQAGGSLRLSCAASGFICFDYDMGWYRQAPGKERELVAAINWTGGSTDYADSVKGRFTISRDNAKNTVYLQMNSLKPEDTAVYYCAAEGQDGRFYWGQGTQVTVSS”, the “polyreactivity (PSR sort gate)” value is reported as “low polyreactivity”. For “QVQLVESGGGLVQAGGSLRLSCAASGLTFDYYVMGWYRQAPGKERELVATISWSGDITYYADSVKGRFTISRDNAKNTVYLQMNSLKPEDTAVYYCATDKSYSSWSAQYDYWGQGTQVTVSS”, the “polyreactivity (PSR sort gate)” value was “low polyreactivity”. For “QVQLVEAGGGLVQAGGSLRLSCAPSGFICYYYGMGWYRQAPGKDREVVASIRSGGSTNYADSVKGRFTISRDNAKNTGYLQMNWLKPEDTAVYNCAASLLNRISNYDYWGQGTQVTVKS”, the “polyreactivity (PSR sort gate)” value was “high polyreactivity”. For “QVQLVESGGGLVQAGGSLRLSCAASGRIFSTYTMGWYRQAPGKERELVASISWSGVRTRYADSVKGRFTISRDNAQNTVYLQMNSLKPEDTAVYYCAAVVPYYYRSPSNHMGYWGQGTQVTVSS”, the “polyreactivity (PSR sort gate)” value was “high polyreactivity”.
